In patent publication US20240239881A1:
Read-outs that look alike come from different tables or passages of the source.

Columns and labels:
[1] = molecular target: Cynomolgus monkey Ang2 C-terminal domain (Lys274-Phe495) (cynomolgus monkey); assay: ForteBio BLI, antibody on AHQ sensor, 100 nM antigen, 1:1 model
[2] = molecular target: recombinant biotinylated hAngiopoietin-2 protein (R&D, Cat. No.: BT623B/CF) (human) (UniProt O15123); assay: ELISA: biotin Ang2 (R&D BT623B/CF) captured on coated streptavidin (SA), antibody titrated, anti-human IgG-HRP, OD450-OD620, GraphPad fit (fit of a flat control curve)
recombinant biotinylated hAngiopoietin-2 protein (R&D, Cat. No.: BT623B/CF) (human), sequence (O15123 19-496 limits assumed): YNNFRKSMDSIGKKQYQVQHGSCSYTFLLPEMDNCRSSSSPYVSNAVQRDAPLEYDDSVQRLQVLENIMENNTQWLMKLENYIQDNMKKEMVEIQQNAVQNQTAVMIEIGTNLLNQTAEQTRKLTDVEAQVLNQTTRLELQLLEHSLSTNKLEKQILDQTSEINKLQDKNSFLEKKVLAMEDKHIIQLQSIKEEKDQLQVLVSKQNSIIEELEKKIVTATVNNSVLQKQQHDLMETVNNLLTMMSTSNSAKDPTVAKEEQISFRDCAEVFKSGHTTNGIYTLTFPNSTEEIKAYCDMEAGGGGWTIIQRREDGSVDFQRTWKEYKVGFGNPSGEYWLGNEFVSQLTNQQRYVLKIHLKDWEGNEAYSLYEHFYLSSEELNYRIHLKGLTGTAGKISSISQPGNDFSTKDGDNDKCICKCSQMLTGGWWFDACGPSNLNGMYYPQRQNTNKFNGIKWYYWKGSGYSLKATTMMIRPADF

[3] = molecular target: recombinant biotinylated hAngiopoietin-2 protein (R&D, Cat. No.: BT623B/CF) (human) (UniProt O15123); assay: blocking ELISA: antibody titrated against biotinylated hAng2 (300 ng/ml final); blocked binding to coated hTie2 protein; Avidin-HRP detection (fit of a flat control curve)
[4] = molecular target: recombinant biotinylated hAngiopoietin-2 protein (R&D, Cat. No.: BT623B/CF) (human) (UniProt O15123); assay: as above; remark: listed apart in the source
[5] = molecular target: Human ang2 protein (Sino Biological, Cat No.: 10691-H08H) (human) (UniProt O15123); assay: ELISA: human ang2 protein (Sino Biological 10691-H08H) coated at 0.25 ug/ml, antibody titrated, HRP-conjugated secondary antibody, OD450-OD620, GraphPad fit (fit of a flat control curve)
Human ang2 protein (Sino Biological, Cat No.: 10691-H08H) (human), sequence (O15123 19-496 limits assumed): as above

Cynomolgus monkey Ang2 C-terminal domain (Lys274-Phe495) (cynomolgus monkey), sequence (chain, as listed by the source, form in doubt): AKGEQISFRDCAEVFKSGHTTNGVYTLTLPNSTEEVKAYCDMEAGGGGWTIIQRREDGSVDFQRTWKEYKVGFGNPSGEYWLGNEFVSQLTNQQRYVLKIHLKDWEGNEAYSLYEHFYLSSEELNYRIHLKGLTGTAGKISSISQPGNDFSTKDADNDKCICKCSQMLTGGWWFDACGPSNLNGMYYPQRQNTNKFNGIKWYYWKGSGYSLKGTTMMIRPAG

Kd [1] | EC50 [2] | IC50 [3] | IC50 [4] | EC50 [5] | Substance
1.04 nM | – | – | – | – | Nesvacumab (Regeneron) (antibody)
– | 0.00807 nM | 16.9 nM | 24.8 nM | 16.8 nM | IgG (antibody)
